In experiment [1] the target is Naegleria fowleri cystatin (recombinant, without signal presequence) (Naegleria fowleri (strain HB-1)). The experiment can be described thus: SEC; analytical size-exclusion chromatography, Superdex 200 Increase 10/300 GL, 20 mM Tris-HCl, 150 mM NaCl, pH 7.5; mass from calibration with Gel Filtration Standard (Bio-Rad). In general terms: In gel filtration, larger molecules generally elute earlier.

Experiment [2] has as its target Recombinant human cathepsin K holoenzyme (human) (UniProt P43235).
Experiment [3] addresses Cathepsin L holoenzyme from human liver (human).

Values joined by “and” are separate entries in the source; they are usually repeats but may differ in a detail not shown here. Identical values can stand only once.

Chain of Recombinant human cathepsin K holoenzyme (human) (P43235 16-329): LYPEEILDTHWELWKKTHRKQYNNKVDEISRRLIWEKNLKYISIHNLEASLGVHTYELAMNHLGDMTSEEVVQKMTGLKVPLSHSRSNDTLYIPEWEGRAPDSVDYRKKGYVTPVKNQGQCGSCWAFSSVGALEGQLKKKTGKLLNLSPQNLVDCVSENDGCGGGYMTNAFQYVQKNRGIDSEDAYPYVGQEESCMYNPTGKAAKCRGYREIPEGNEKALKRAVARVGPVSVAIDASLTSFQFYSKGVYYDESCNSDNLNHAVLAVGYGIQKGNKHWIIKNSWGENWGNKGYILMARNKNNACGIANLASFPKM
Chain of Cathepsin L holoenzyme from human liver (human) (P07711 18-333): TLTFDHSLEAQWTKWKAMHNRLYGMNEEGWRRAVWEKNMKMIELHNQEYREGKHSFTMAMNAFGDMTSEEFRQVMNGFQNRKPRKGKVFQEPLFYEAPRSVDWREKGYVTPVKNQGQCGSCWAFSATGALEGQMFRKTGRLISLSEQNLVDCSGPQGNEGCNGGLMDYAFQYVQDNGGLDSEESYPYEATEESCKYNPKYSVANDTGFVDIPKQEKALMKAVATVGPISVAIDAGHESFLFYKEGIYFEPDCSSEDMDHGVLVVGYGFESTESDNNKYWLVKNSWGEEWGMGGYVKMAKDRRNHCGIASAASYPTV

On to “Naegleria fowleri cystatin (recombinant, without signal presequence) (natural protein)”, for which, in experiment [1], the stoichiometry N (usually the number of molecules, sites or subunits per partner or assembly) was 4 and 2. Further, the IC50 of inhibition of peptidase activity (Z-Phe-Arg-AMC cleavage), 50 nM enzyme, 5 nM – 2 µM Nf cystatin, pH 5.5 in experiment [2] worked out at 31 nM; in experiment [3], 517 nM.
